In data set [1] the test system is N=C(N)NC[C@@H](O)C[C@H](N)C(=O)O. Nature of the data set: purified protein. The conditions noted are these: KPi buffer; PLP cofactor co-purified; cyclodehydration to L-enduracididine.
Data set [2] concerns the target GntC E9A (Sphaerospermopsis torques-reginae ITEP-024). Nature of the data set: SEC; analytical size exclusion chromatography of purified wild-type GntC and mutants. On the technique in general: Size exclusion chromatography separates by hydrodynamic size, large species first.
Data set [3] concerns the target GntC E9D (Sphaerospermopsis torques-reginae ITEP-024). The data set is described as above.
For data set [4], the target named is GntC E9Q (Sphaerospermopsis torques-reginae ITEP-024). The description is as above.
Data set [5] has as its target GntC K219A (Sphaerospermopsis torques-reginae ITEP-024). The data set is described as above.
Data set [6] deals with GntC N52A (Sphaerospermopsis torques-reginae ITEP-024). The description is as above.
Data set [7] addresses GntC N52D (Sphaerospermopsis torques-reginae ITEP-024). Described as above.
The target of data set [8] is GntC N52Q (Sphaerospermopsis torques-reginae ITEP-024). The data set is described as above.
Data set [9] has as its target GntC S25A (Sphaerospermopsis torques-reginae ITEP-024). The data set is described as above.
Data set [10] deals with GntC T84A (Sphaerospermopsis torques-reginae ITEP-024). The description is as above.
For data set [11], the target named is GntC T84V (Sphaerospermopsis torques-reginae ITEP-024). The data set is described as above.
The target in data set [12] is Sphaerospermopsis torques-reginae ITEP-024 GntC (Sphaerospermopsis torques-reginae ITEP-024). Described as above.

The values that follow come from paper PMC10367076, “Mechanistic and Structural Insights into a Divergent PLP-Dependent L-Enduracididine Cyclase from a Toxic Cyanobacterium” (ACS Catalysis, 2023).

With “GntC (Sphaerospermopsis torques-reginae ITEP-024)”, in data set [1], the Km worked out at 150 ± 80 µM and the kcat is 0.0061 ± 0.008 min^–1.
On to GntC E9A (enzyme), for which, in data set [2], the stoichiometry N came out at 2.
In the case of GntC E9D (enzyme), the stoichiometry N in data set [3] was determined as 2.
For the substance GntC E9Q (enzyme), in [4], the stoichiometry N amounted to 2.
GntC K219A (enzyme) gave a stoichiometry N in data set [5] of 2.
In data set [6], GntC N52A (enzyme) returned a stoichiometry N of 2.
With GntC N52D (enzyme), the stoichiometry N in data set [7] was 2.
The substance GntC N52Q (enzyme) gave a stoichiometry N in [8] of 2.
GntC S25A (enzyme): the stoichiometry N in data set [9] amounted to 2.
As for GntC T84A (enzyme), in data set [10], the stoichiometry N is 2.
The substance GntC T84V (enzyme) showed a stoichiometry N in data set [11] of 2.
For “Sphaerospermopsis torques-reginae ITEP-024 GntC (enzyme)”, the stoichiometry N in [12] came to 2.

The Km is the concentration of substrate that gives half-maximal velocity. Broadly, the stoichiometry N is a count of units in the complex or per binding partner.
